Test results published in PMC2909917, “Dynamic Subunit Exchange and the Regulation of Microtubule Assembly by the Stress Response Protein Human αB Crystallin” (PLoS ONE, 2010).

Target: the molecule itself
Test: SEC; 128 µM αB crystallin alone in 20 mM tris-HCl, 160 µM MgCl2, 40 µM EGTA, pH 8.0; Biosep SEC-S4000, eluted in 20 mM tris-Cl pH 8.0 at 4°C; size from calibration proteins (apparent); subunits to polydisperse complex

B1: human αB crystallin (natural protein, UniProt P02511 1-175, looked up)
chain: MDIAIHHPWIRRPFFPFHSPSRLFDQFFGEHLLESDLFPTSTSLSPFYLRPPSFLRAPSWFDTGLSEMRLEKDRFSVNLDVKHFSPEELKVKVLGDVIEVHGKHEERQDEHGFISREFHRKYRIPADVDPLTITSSLSSDGVLTVNGPRKQVSGPERTIPITREEKPAVTAAPKK
notes: human αB crystallin, expressed from a human αB crystallin pET16b plasmid; 20 kDa on SDS-PAGE; Polydisperse complex; pET16b can add an N-terminal His tag, but purification was by anion exchange and SEC, so the protein is probably untagged (surmise); also called small heat shock protein (sHSP); source: E. coli BL21 (DE3), purified (Q Sepharose Fast Flow, Superdex 200); copies: 24
stoichiometry N: 24 subunits
